Data set [1] addresses T1, GST-TR (TRbeta) (human, UniProt P10828 1-461).
T1 sequence: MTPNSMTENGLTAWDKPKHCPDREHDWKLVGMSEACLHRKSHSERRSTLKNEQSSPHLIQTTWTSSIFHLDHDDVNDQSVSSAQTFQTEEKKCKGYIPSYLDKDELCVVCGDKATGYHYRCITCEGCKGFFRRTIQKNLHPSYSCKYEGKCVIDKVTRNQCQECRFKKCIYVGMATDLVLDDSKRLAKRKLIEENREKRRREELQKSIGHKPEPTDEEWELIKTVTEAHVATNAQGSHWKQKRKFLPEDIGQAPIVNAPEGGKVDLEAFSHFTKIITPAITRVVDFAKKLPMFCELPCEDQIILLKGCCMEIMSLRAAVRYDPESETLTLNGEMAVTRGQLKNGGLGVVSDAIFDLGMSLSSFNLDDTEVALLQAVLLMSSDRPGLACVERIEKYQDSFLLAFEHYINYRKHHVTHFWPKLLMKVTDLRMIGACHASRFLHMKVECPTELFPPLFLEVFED
Briefly: EMSA; PBS pH 7.4, 5 mM MgCl2, 1 mM ZnCl2, 1 mM DTT, 0.1% NP-40, 10% glycerol, 200 ng/ul pdIdC, 25-100 ng/ul salmon sperm DNA, 20 min room temperature; 5% PAGE in TAE. To be noted: protein: recombinant; tags: GST; label: 32P; blunt. In general terms: A gel shift assay detects complexes by their altered migration in electrophoresis.

In data set [2] the target is T1, GST-TR (TRbeta). The data set is described as follows: competition; 50-fold excess against COMT DR4 probe; PBS pH 7.4, 5 mM MgCl2, 1 mM ZnCl2, 1 mM DTT, 0.1% NP-40, 10% glycerol, 200 ng/ul pdIdC, 25-100 ng/ul salmon sperm DNA, 20 min room temperature; 5% PAGE in TAE. The settings on record: protein: recombinant; tags: GST; label: 32P; 5' overhangs 4 nt.
The target in data set [3] is T1, GST-TR (TRbeta). The data set is described as follows: competition; mutated F2 against COMT DR4 probe; PBS pH 7.4, 5 mM MgCl2, 1 mM ZnCl2, 1 mM DTT, 0.1% NP-40, 10% glycerol, 200 ng/ul pdIdC, 25-100 ng/ul salmon sperm DNA, 20 min room temperature; 5% PAGE in TAE. To be noted: protein: recombinant; tags: GST; 5' overhangs 4 nt.

B1: COMT DR4 (dsDNA)
DNA 1: ACCCGAGGGCACCAGAGGGCACGAGA
DNA 2: TCTCGTGCCCTCTGGTGCCCTCGGGT
On to B1, for which, in the data set with GST-TR (TRbeta) [1], the binding result is “binds”.

B2: F2 TRE (ER6) (dsDNA)
DNA 1: AGCTTTTAGTTACTTATTGACCCCAGCTGAGGTCAG
DNA 2: GATCCTGACCTCAGCTGGGGTCAATAAGTAACTAAA
For B2, in the data set with GST-TR (TRbeta) [2], the binding result is reported as “binds”.

B3: F2mut TRE (dsDNA)
DNA 1: AGCTTTTAGTTACTTATTGGGTCCAGCTGATCCCAG
DNA 2: GATCCTGGGATCAGCTGGACCCAATAAGTAACTAAA
On to B3, for which the binding result in the data set with GST-TR (TRbeta) [3] is listed as “no binding”.

These data come from PMC2852416, “Modular Insulators: Genome Wide Search for Composite CTCF/Thyroid Hormone Receptor Binding Sites”.
